# Earlier results, collected in publication PMC9506339.
# pKd: −log10 of the molar value. Where two headings read alike, the source gives them in different places.
# Key:
# [1] = biological target: vitamin D-binding protein (UniProt P02774)
# [2] = biological target: vitamin D-binding protein (UniProt P02774); remark: listed apart in the source
# UniProt P02774, sequence (P02774 17-474): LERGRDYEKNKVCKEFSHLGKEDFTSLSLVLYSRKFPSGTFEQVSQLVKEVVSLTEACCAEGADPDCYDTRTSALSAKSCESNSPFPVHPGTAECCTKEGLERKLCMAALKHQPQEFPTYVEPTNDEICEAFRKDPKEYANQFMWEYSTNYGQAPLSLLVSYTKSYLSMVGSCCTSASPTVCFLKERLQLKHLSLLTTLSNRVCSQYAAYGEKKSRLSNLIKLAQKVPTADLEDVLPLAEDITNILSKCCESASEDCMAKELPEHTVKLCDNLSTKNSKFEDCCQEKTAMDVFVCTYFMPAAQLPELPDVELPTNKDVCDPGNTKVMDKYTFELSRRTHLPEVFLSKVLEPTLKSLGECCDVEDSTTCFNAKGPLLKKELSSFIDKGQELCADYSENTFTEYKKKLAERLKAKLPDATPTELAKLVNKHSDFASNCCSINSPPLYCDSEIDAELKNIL
pKd [1],pKd [2],Substance
6.96,,cubilin (from UniProt O60494)
,6.92,megalin (from UniProt P98164)
